In article PMC4444369 (Journal of molecular biology, 2014):

Target: APC3 (wild-type, untagged) (human, UniProt P30260-2 1-830)
Assay: SEC

- binding result: binds
B1: APC16^C (Strep tag removed by TEV) (domain or fragment)
chain: not shown
